Target: T1, HY5-S36A-GFP (Arabidopsis, UniProt O24646 1-168, S36A)
T1 sequence (looked up): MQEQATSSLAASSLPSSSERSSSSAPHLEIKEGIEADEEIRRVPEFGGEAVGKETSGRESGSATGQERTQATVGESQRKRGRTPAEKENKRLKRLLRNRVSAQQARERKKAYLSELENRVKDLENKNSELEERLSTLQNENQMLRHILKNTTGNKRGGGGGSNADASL
Assay: co-IP

B1: COP1 (CONSTITUTIVE PHOTOMORPHOGENIC1), endogenous (natural protein, Arabidopsis (endogenous in seedlings), UniProt P43254 1-675, looked up)
chain: MEEISTDPVVPAVKPDPRTSSVGEGANRHENDDGGSGGSEIGAPDLDKDLLCPICMQIIKDAFLTACGHSFCYMCIITHLRNKSDCPCCSQHLTNNQLYPNFLLDKLLKKTSARHVSKTASPLDQFREALQRGCDVSIKEVDNLLTLLAERKRKMEQEEAERNMQILLDFLHCLRKQKVDELNEVQTDLQYIKEDINAVERHRIDLYRARDRYSVKLRMLGDDPSTRNAWPHEKNQIGFNSNSLSIRGGNFVGNYQNKKVEGKAQGSSHGLPKKDALSGSDSQSLNQSTVSMARKKRIHAQFNDLQECYLQKRRQLADQPNSKQENDKSVVRREGYSNGLADFQSVLTTFTRYSRLRVIAEIRHGDIFHSANIVSSIEFDRDDELFATAGVSRCIKVFDFSSVVNEPADMQCPIVEMSTRSKLSCLSWNKHEKNHIASSDYEGIVTVWDVTTRQSLMEYEEHEKRAWSVDFSRTEPSMLVSGSDDCKVKVWCTRQEASVINIDMKANICCVKYNPGSSNYIAVGSADHHIHYYDLRNISQPLHVFSGHKKAVSYVKFLSNNELASASTDSTLRLWDVKDNLPVRTFRGHTNEKNFVGLTVNSEYLACGSETNEVYVYHKEITRPVTSHRFGSPDMDDAEEEAGSYFISAVCWKSDSPTMLTANSQGTIKVLVLAA
  fold co-immunoprecipitated COP1 against the HY5-S36D-GFP line: 4 times

From publication doi:10.1101/2020.09.10.291773 (bioRxiv, 2020)
